From US10801046B2, “Methods and materials for biosynthesizing multifunctional, multivariate molecules via carbon chain modification” (INVISTA NORTH AMERICA S.A.R.L., priority 2016, dated 2020)

B1: SEQ ID NO: 180: Ramlibacter tataouinensis aminotransferase (protein, listed as Ramlibacter tataouinensis)
chain: MAYNDFDTGNHWLPFTPNRHFKKEPRVFVAADGMHFTTHDGRQVVDGISSLWCVGAGHNRKPINEAIKKQLDTLDYATAFNAANDQAFLAAQKIAAMAPGDLNKVLFCNSGSEAADTSMKVALAYHRARGEGHRNIFIGRERGYHGVGFGGMSVGGIPANRKVYGTALLPRVDHMRFIHDPANAYIHNQEPVSQEDYLLELEQRILPLHSPENVAAIIVEPVAGSAGWYLPPKGYLKRLREICDKHGILLIFDEVITGFGRMGTSFGADFYGVVPDMLNFAKCVTNGVIPLGGVICRDKLYDTMMKTDAPEHVIEFFHGYTYSGHPVSCAAAIATLDLYQKEGLFPRAGEMGKVLGDAFHSTFKGLPNVVGIRSLGLAAAVELAPIAGLPGKRAYDIYLDCFRKGALVRPAGDVVVIAPPYVVEKSHIDQLVNTLADSIRQHA
modifications: Ramlibacter tataouinensis (strain ATCC BAA-407 / DSM 14655 / LMG 21543 / TTB310)
notes: Ramlibacter tataouinensis aminotransferase
B2: SEQ ID NO: 117: Thermomicrobium roseum aminotransferase (protein)
chain: MTEVAAVHPEPRTAPDFEQEALKHVWIHSAEWIRLAEERGFRVFERAYGSTLVDVYGREFIDGLSGLWVVNAGHGRKEIAEAMAEQASKLAYVSSANHTTVPTVRLAHELALRLPGDLNRVFFCSGGSEAVESAIKIAKQVQAMRGFPKRYKIIARRGSYHGMTYGAMSLTQSRNEKFFGPFMYGVYYVPSPNRYRNDFGLEGEEGDLMCANYVEQEILYQDPETVAAVIGEPISTSNGVHVPSPKYWQRLREICDKYGVLLIMDEVINGFGRTGKLFAAEHFGVVPDLMTMAKGITSGYAPMGAVAVRDSVFQIFQEQKEVPLGHLLTFGGHAVAAAAALKNLEIFEREGLVQQSAEKGAYLLERLKELLRHPTVGDVRGLGLMCGIELVKSKATKEKWPRNSAFIKALERRMNEKGLLTRVWEIVHVAPPLVVTYEELDRIVTIIDEALTETENEFASEIAE
modifications: Thermomicrobium roseum (strain ATCC 27502 / DSM 5159 / P-2)
notes: Thermomicrobium roseum aminotransferase
B3: SEQ ID NO: 181: Bradyrhizobium sp. DOA9 aminotransferase (protein)
chain: MVAKQLSNSLAHADISATLHPYTNARAHERQGPVIIDRGEGIYVYDDAGKEYIEGLAGLWSVAIGFDEPRIVEVAAAQMAKLPYYHTFSHKSHEPSIRLAEKLVGMTPEPLSRVFFTSSGSEANDTMIKMVWYMNNALGRPKKKKFLARHRAYHGVTVASGSLTGLPNNHKDFDLPVIPVRHLTCPHFYRFAQTEETEAEFSARLVSEAEATILEEGPDTIAAFVGEPLMAAGGVMPPPKGYWQGIEALCRKYDILLVADEVICGLGRLGTRFGCEHYHFTPDIMIVSKQLTSSYMPLAAVIFSETIYNAIADNTAKIGTFGHGFTASGHPVATAVALENLKIIEERDLVGNAARMGRILQARLGELAAHPLVGEVRGVGLIAGIELVSEKHTRRPFASAGEVGAAAFAAAQRHGLIVRAIGDTIALCPPLIINEDQVHELVARLGDALDDTAQWRSAENLN
modifications: Bradyrhizobium sp. DOA9
notes: Bradyrhizobium sp; DOA9 aminotransferase
B4: SEQ ID NO: 179: Sphingobacterium spiritivorum ATCC 33861 aminotransferase (protein)
chain: MIKEATVHERLAKHILADGLPLVIDLEKSHDSYIVDIEGNEYLDMFSMFASSPIGYNHPHIVKNSDLLKKVAINKLALSDIYPREFADFVDTFERVAIPAELSYCFFIDGGALAVENALKAAFDWKTRLNISRGIQQEASEVIHFKQAFHGRTGYTLSLTNTKDPRKYMYFPKFDWPRITNPKLHFPLTEESVTETIKAEQQAIQEIEAAIAKNPDAIACLILEPIQAEGGDNHFRTEFFQELRRICDDHDILLILDEVQTGLALTGKMWAYEHYGIIPDLISFGKKSQVCGVLAHREKFDRVEKHVFKESSRINSTFGGNLVDMMRFKLILEVIEQENLVQQAESLGEYLLEKLEQLAKRHSQLSNVRGKGLLASFDFQTEQQRDEFVKRAMNNKLLILGCGDKSIRFRPHLTVTVEQLDKALALVEKSL
modifications: Sphingobacterium spiritivorum ATCC 33861
notes: Sphingobacterium spiritivorum ATCC 33861 aminotransferase
B5: SEQ ID NO: 178: Defluviimonas sp. 20V17 aminotransferase (protein)
chain: MNELSNSVAHADITTILHPYTDARMHEQKGPLVIEKGDGVHVIDQSGKRYIEAMSGLWSVAVGFSQTRLRDAAAAQMEKLPYYHTFASKSHEPSVRLAEKLVEMTPENLTRVFYTSSGSEANDTVIKLVWYMNNALGRPQKKKFLARNKAYHGITIASGSLTGLPGNHRDFDLPAIPVVHLTCPHLYRFGQEGETEAQFCARLLKEAEDTILAEGPETIAAFIGEPVMGAGGVMVPPEGYWQGIEALCRKYDILLVSDEVINGFGRTGARWGCEKMGFTPDILVTSKQLTSSYMPLAAIVFSEDIYNVIADNTHKLGGFGHGFTASGHPVACAVGLENLAIIEEQGLMENAAKMGERLQAGLAKLADHPLVGEVRGTGLIAAVELVADKATKRPFDPVGKVGGKVFEYGHEEGVIFRNLGDSIAVCPPLIVTEHDVDEIVRLMGIAIDRAADWARAEGLVA
modifications: Defluviimonas sp. 20V17
notes: Defluviimonas sp; 20V17 aminotransferase
B6: SEQ ID NO: 176: Firmicutes bacterium CAG:24 aminotransferase (protein)
chain: MGELMQQYIDEAEQDLLHTYNRYQVVLDRGDGVSLYDIEGKRYLDFVAGIAVFALGYHNAEYNDALKAQIDKVIHTSNYYYNVPAVEAARHLKKVSRMDRVFFTNSGAEAIEGAIKAARKYAYLKDGTTDHEIIAMNHSFHGRTMGALSVTGNPHYREAFEPGIGNIRFADLNDFDSVLACVNDKTCAILLETVQGEGGIYPVQEDFLKKVRALCDEKDILLILDEIQCGMGRTGYWYAWQKYGVKPDIMTTAKALGCGVPVGAFLMTEKVGQHSLTAGDHGTTYGGNPLACAAVAKVLDLFEENNILEHVREVSAYLEEKLDSLAAKYDFITDRRGMGLMQGLVFDRPVAPVINAALENGLILINAGTNIIRFVPPLVITDADVDEMIEILDSCLKTFQEQNA
modifications: Firmicutes bacterium CAG:24
notes: Firmicutes bacterium CAG:24 aminotransferase
B7: SEQ ID NO: 177: Pseudooceanicola batsensis aminotransferase (protein, listed as Pseudooceanicola batsensis)
chain: MKDDNFLKEHNARALWHPMGAPGDSMANPPVIISSASGSRIRDIDGHETVDGVGGLWCANLGYSNDAVKEAIAKQLHELPYYSAFAGCTNPSAIEASVAVQEFFAEDGIGRVFFTSGGSDSVDTCLRLARQYHQVKGAPTRTKFLSLKKGYHGTHFGGASVNGNNRFRIGYEPLLPGCFHLTAPHAYRNPYDEADPAALARKIAAEMVDEIEFQGPETIAAFIMEPILGAGGVIVPDPTFMGLMREICTRYGILMIADEVICGFGRTGDWTGSRHWGVRPDMMSVAKGITSAYFPVGAALISEEVAEVFEKDTSGAAAIWHGYTYSAHPVGAAAVTACLSETLRLDTRTNAAARGTQLYQGLLGLKEKYDIIGDVRGGHGLMTAIEFVTDRAKKTPMDAATVKTIHSRVYEAGAMVRPAPPNLLMSPPLIITEAEVRTIIEALDTAIGSV
modifications: Pseudooceanicola batsensis (strain ATCC BAA-863 / DSM 15984 / KCTC 12145 / HTCC2597)
notes: Pseudooceanicola batsensis aminotransferase
B8: SEQ ID NO: 175: Tepidicaulis marinus aminotransferase (protein, listed as Tepidicaulis marinus)
chain: MSQTAQISNQTRRWQEMDARHHVHPFSDQAALAKKGARVITHAEGVYLYDSEGHKIIDGMAGLWCVNVGYGRSELAEAGYKALKELPYYNTFFQTTNPYTAELGERLAEVTPDGLDRFFFANSGSEANDSMVKIIRYYWSLQGKPEKKVFISRKQAYHGVTMTAASLSGISAMHPQAGLPLPNHAHIDFPYWYGMGGDMDPNEFGVHIAMKLEEKILEIGAENVAAFVAEPVQGAGGLIIPPDSYWPVIQEICHKYDILLHADEVICGFGRTGNWFGSHTYGIVPDTMAMAKGMTSGYQPLSAVALGPRVGDALHNSGEEWSHGFTYSGHPVASAVALANLDVLQKDKLVEKAGGETGEHFLKHLHALADHPIVGETRGVGLLGAIELVKDKKTRERFEGDTGGLCRDHCFENDLIMRAIGNTMVLSPPLSITKAELDELFTLARKALDATAKDLGAM
B9: SEQ ID NO: 123: Pseudomonas sp. 10-1B aminotransferase (protein)
chain: MENSMSLNDLQQRDIDNLLHPYTNHHLHQSQGPHVITGGDGIYVTDDQGNRYIEGLAGLFCASLGFSEPRLAQAAFEQLQRMPFYHAFAHKSTQPGIELAERLLAMAPPSMSKVFFANSGSEANDTAVKLIWYYHNAIGQPQKKKIIARQRGYHGVTVASASLTGLPNNHRDFDLPIANILHTDCPHYYRYGLPGESEAAFVDRCVANLEALILHEGADTIAAFFAEPVMVSGGVILPPQGYFAKVQALLRKYDILFVVDEVICGFARTGNMFGWQTYDLQPDMISLAKQLSAAYMPISALLVNDKIDQALKAQSEKIGSFSHGFTYGGHPVAAAVALEAQKIYQERDIVGHVRRVAPRFQAGIRRLGEHPLIGEARGVGLVAGLEFVRNKQTRETFAPEQSAAAYAGRRAQAHGVITRGLGDTLSLCPALIIDEEQIDDLIVRIERALDDTLAWAREQGLVDA
modifications: Pseudomonas sp. 10-1B
notes: Pseudomonas sp; 10-1B aminotransferase
B10: SEQ ID NO: 188: Vibrio mimicus thioesterase (protein, listed as Vibrio mimicus)
chain: MIRLLSLVLFFCLSAASQASEKLLVLGDSLSAGYQMPIEKSWPSLLPDALLEHGQDVTVINGSISGDTTGNGLARLPQLLDQHTPDLVLIELGANDGLRGFPPKVITSNLSKMISLIKDSGANVVMMQIRVPPNYGKRYSDMFYDIYPKLAEHQQVQLMPFFLEHVITKPEWMMDDGLHPKPEAQPWIAEFVAQELVKHL

test system: not listed separately; assay: In vivo aminotransferase activity screening, 7-aminoheptanoate by LC-MS; type: cell-based, Escherichia coli; details: in vivo conversion of 7-oxoheptanoate to 7-aminoheptanoate, 120 aminotransferases screened
Procedure: A 165-member aminotransferase library from Twist on IPTG-inducible T7- pUC expression vectors was co-transformed into T7 Express lysY/Iq with a constitutive expression pJ23150-derived plasmid bearing the phosphopantetheinyl transferase sfp from Bacillus subtilis, CAR_Srot from Invista and BioC from Serratia marcescens (UniprotKB Accession No. P36571 (SEQ ID NO: 165)). The resulting strains were incubated in 0.5 ml of rich media (terrific broth or LB containing 8% glycerol) supplemented with 0.4 mM IPTG and received 1 g/L monomethyl heptanedioate, 1 g/L heptanedioate, or no organic acid addition, depending on the experiment. Following incubation overnight at 37° C. in a shaking incubator, cells were pelleted and the supernatants were analyzed using LC-MS for 7-aminoheptanoate or monomethyl 7-aminoheptanoate. A Vibrio fluvialis aminotransferase (UniProtKB Accession No. F2XBU9 (SEQ ID NO: 128)) was used as a positive control.

**Q.** Which “7-aminoheptanoate yield compared to the positive control (F2XBU9)” value does the source give for B1 here?
**A.** higher 7-aminoheptanoate yields

**Q.** With B2 as the molecule, how does the “7-aminoheptanoate yield compared to the positive control (F2XBU9)” value read?
**A.** higher 7-aminoheptanoate yields

**Q.** Which “7-aminoheptanoate yield compared to the positive control (F2XBU9)” value does the source give for B3 here?
**A.** higher 7-aminoheptanoate yields

**Q.** For B4, which “7-aminoheptanoate yield compared to the positive control (F2XBU9)” value is on record?
**A.** higher 7-aminoheptanoate yields

**Q.** With B5 as the molecule, how does the “7-aminoheptanoate yield compared to the positive control (F2XBU9)” value read?
**A.** higher 7-aminoheptanoate yields

**Q.** With B6 as the molecule, how does the “7-aminoheptanoate yield compared to the positive control (F2XBU9)” value read?
**A.** higher 7-aminoheptanoate yields

**Q.** With B7 as the molecule, how does the “7-aminoheptanoate yield compared to the positive control (F2XBU9)” value read?
**A.** higher 7-aminoheptanoate yields

**Q.** Which “7-aminoheptanoate yield compared to the positive control (F2XBU9)” value does the source give for B8 here?
**A.** higher 7-aminoheptanoate yields

**Q.** Which “7-aminoheptanoate yield compared to the positive control (F2XBU9)” value does the source give for B9 here?
**A.** higher 7-aminoheptanoate yields

test system: heptanedioyl-ACP; assay: not given; type: cell-based, Escherichia coli; details: top 150 hits screened in vivo

**Q.** With B10 as the molecule, how does the “activity toward heptanedioyl-ACP in vivo” value read?
**A.** displayed considerable activity toward heptanedioyl-ACP
